{
  "source": "patent US20240263193A1",
  "about": "(published 2024)",
  "key": {"CP5-46-4D5E": {"target": "T1, CP5-46-4D5E", "T1 peptide": "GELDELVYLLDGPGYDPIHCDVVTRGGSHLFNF", "test": "cell-based or functional assay"}, "EGFP(R96M)-AlfaTag": {"target": "EGFP(R96M)-AlfaTag", "test": "cell-based or functional assay"}},
  "data": [
    {"binder": "NS4A/NS3 (Genotype 1B) (enzyme) GSVVIVGRIILSGSGSITAYSQQTRGLLGCIITSLTGRDKNQVEGEVQVVSTATQSFLATCVNGVCWTVYHGAGSKTLAGPKGPITQMYTNVDQDLVGWQAPPGARSLTPCTCGSSDLYLVTRHADVIPVRRRGDSRGSLLSPRPVSYLKGSSGGPLLCPSGHAVGIFRAAVCTRGVAKAVDFVPVESMETTMRS", "values": [
      {"measurement": "fold change of the grazoprevir treated iADAR compared to DMSO treated, unmutated Pep-NS3 system, 4xUAG MS2 reporter, HEK293FT, flow cytometry (intramolecular pair)", "setting": "CP5-46-4D5E", "value": "~31", "unit": "fold"},
      {"measurement": "ratio of mNeonGreen to mCherry (mNG/mCh), 2 µM grazoprevir against no drug, HEK cells, microscopy (intramolecular pair)", "setting": "CP5-46-4D5E", "value": "~18", "unit": "fold"}
    ]},
    {"binder": "ALFA-Bcl dual input iADAR (other) MASNFTQFVLVDNGGTGDVTVAPSNFANGIAEWISSNSRSQAYKVTCSVRQSSAQNRKYTIKVEVPKGAWRSYLNMELTIPIFATNSDCELIVKAMQGLLKDGNPIPSAIAANSGIYGGSGSGAGSGSPAGGGAPGSGGGSTGAPPNLWAAQRYGRELRRMSDEFVDSFKKASQLHLPQVLADAVSRLVLGKFGDLTDNFSSPHARRKVLAGVVMTTGTDVKDAKVISVSTGTKCINGEYMSDRGLALNDCHAEIISRRSLLRFLYTQLELYLNNKDDQKRSIFQKSERGGFRLKENVQFHLYISTSPCGDARIFSPHEPILEEPAASGSGPGRLEEELRRRLSPGTGDRHPNRKARGQLRTKIESGQGTIPVRSNASIQTWDGVLQGERLLTMSCSDKIARWNVVGIQGSLLSIFVEPIYFSSIILGSLYHGDHLSRAMYQRISNIEDLPPLYTLNKPLLSGISNAEARQPGKAPNFSVNWTVGDSAIEVINATTGKDELGRASRLCKHALYCRWMRVHGKVPSHLLRSKITKPNVYHESKLAAKEYQAAKARLFTAFIKAGLGAWVEKPTEQDQYSLTGSGGTAEVQLQESGGGLVQPGGSLRLSCTASGVTISALNAMAMGWYRQAPGERRVMVAAVSERGNAMYRESVQGRFTVTRDFTNKMVSLQMDNLKPEDTAVYYCHVLEDRVDSFHDYWGQGTQVTVSSGAGSGASSNRELVVDFLSYKLSQKGYSWSQFSDVEENRTEAPEGTESEMETPSAINGNPSWHLADSPAVNGATGHSSSLDAREVIPMAAVKQALREAGDEFELRYRRAFSDLTSQLHITPGTAYQSFEQVVNELFRDGVNWGRIVAFFSFGGALCVESVDKEMQVLVSRIAAWMATYLNDHLEPWIQENGGWDTFVELYGNNGSSELIKENMHMKLYMEGTVDNHHFKCTSEGEGKPYEGTQTMRIKVVEGGPLPFAFDILATSFLYGSKTFINHTQGIPDFFKQSFPEGFTWERVTTYEDGGVLTATQDTSLQDGCLIYNVKIRGVNFTSNGPVMQKKTLGWEAFTETLYPADGGLEGRNDMALKLVGGSHLIANIKTTYRSKKPAKNLKMPGVYYVDYRLERIKEANNETYVEQHEVAVARYCDLPSKLGHKLN", "values": [
      {"measurement": "median relative fluorescence of the 4xUAG-MS2 reporter, A-1331852 plus EGFP(R96M)-AlfaTag against A-1331852 alone, HEK293FT, flow cytometry", "setting": "EGFP(R96M)-AlfaTag", "value": "~110", "unit": "fold"}
    ]}
  ]
}
